Laboratory results taken from publication PMC9293779, “Elucidation of binding preferences of YEATS domains to site-specific acetylated nucleosome core particles” (The Journal of Biological Chemistry, 2022).
Ends that are not written are not given here.

T1: GST-fused ENL-YEATS domain (peptide array) (human, UniProt Q03111 1-138)
T1 construct: GST follows the N-terminal polyhistidine tag; source: purified (HisTrap HP, Superdex 200); not shown: GST, N-terminal, kept
T1 sequence (looked up): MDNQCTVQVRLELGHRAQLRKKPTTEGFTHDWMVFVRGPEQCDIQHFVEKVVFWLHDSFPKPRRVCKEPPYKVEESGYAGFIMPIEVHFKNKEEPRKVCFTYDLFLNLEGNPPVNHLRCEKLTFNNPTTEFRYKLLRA

T2: GST-fused AF9-YEATS domain (peptide array) (human, UniProt P42568 1-138)
T2 construct: GST follows the N-terminal polyhistidine tag; source: purified (HisTrap HP, Superdex 200); not shown: GST, N-terminal, kept
T2 sequence (looked up): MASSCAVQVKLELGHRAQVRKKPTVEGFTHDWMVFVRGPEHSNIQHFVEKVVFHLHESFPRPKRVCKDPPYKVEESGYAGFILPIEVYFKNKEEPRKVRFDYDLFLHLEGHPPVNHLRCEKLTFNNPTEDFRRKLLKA

T3: AF9-YEATS domain (residues 1–138) for X-ray analysis and ITC (human, UniProt P42568 1-138)
T3 construct: AF9 YEATS domain, human, residues 1–138; cloned in the pCR2.1 vector encoding GST and the polyhistidine tag; source: purified (HisTrap HP, Superdex 200)
T3 sequence (looked up): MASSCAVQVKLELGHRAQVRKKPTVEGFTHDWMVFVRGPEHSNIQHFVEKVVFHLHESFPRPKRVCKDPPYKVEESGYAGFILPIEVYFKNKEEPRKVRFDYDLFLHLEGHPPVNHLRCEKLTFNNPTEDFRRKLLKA

B1: H4 (1–19) tail peptide diacetylated at K5/K8 (MODified Histone Peptide Array) (peptide, UniProt P62805 2-20, looked up)
peptide: SGRGKGGKGLGKGGAKRHR
modifications: acetyl-lysine at K5 and K8
notes: histone H4, residues 1–19; source: bought: Active Motif MODified Histone Peptide Array
B2: H4 (1–19) tail peptide tetra-acetylated at K5/K8/K12/K16 (MODified Histone Peptide Array) (peptide, UniProt P62805 2-20, looked up)
peptide: SGRGKGGKGLGKGGAKRHR
modifications: acetyl-lysine at K5, K8, K12 and K16
notes: as for B1
B3: H4 (1–12) K5ac/K8ac peptide (peptide, UniProt P62805 2-13, looked up)
peptide: SGRGK(Ac)GGK(Ac)GLGK
notes: histone H4, residues 1–12; also called H4K5ac/K8ac peptide; K5/K8-diacetylated H4 peptide
B4: H4 (4–16) K8ac/K12ac peptide (peptide, UniProt P62805 5-17, looked up)
peptide: GKGGK(Ac)GLGK(Ac)GGAK
notes: histone H4, residues 4–16; also called H4K8ac/K12ac peptide; K8/K12-diacetylated H4 peptide

Tests used:
Conditions in all cases: both partners purified
[1] = target: T1, GST-fused ENL-YEATS domain (peptide …); assay: peptide or protein array; MODified Histone Peptide Array (Active Motif); 10 μM GST-fused YEATS domain, 4 °C overnight; 50 mM Tris-HCl pH 7.6, 250 mM NaCl, 0.1% NP-40, 10% glycerol; detected with anti-GST
[2] = target: T2, GST-fused AF9-YEATS domain (peptide …); assay: as above
[3] = target: T3, AF9-YEATS domain (residues 1–138) for …; assay: crystal structure; sitting-drop vapor diffusion at 20 °C; AF9-YEATS with diacetylated H4 peptide; space group P1, two AF9-YEATS molecules in the asymmetric unit
[4] = target: T3, AF9-YEATS domain (residues 1–138) for …; assay: ITC; protein (100 μM) in the cell, peptide (1 mM) in the syringe; 15 °C; 20 mM Tris-HCl pH 7.6, 500 mM NaCl; single binding site model

Binder	binding result [1]	binding result [2]	binding result [3]	Kd [4] [µM]
B1	binds	binds		
B2	binds	binds		
B3			binds	
B4			binds	
ARTK(Ac)QTARK(Ac)STGGKAPRKQ (peptide, UniProt P68431 2-20, looked up, histone H3, residues 1–19) [K4/K9-diacetylated H3 (1–19) peptide]				5.8
ARTKQTARKSTGGKAPRKQ (peptide, UniProt P68431 2-20, looked up, acetyl-lysine at K9 and K14, histone H3, residues 1–19) [K9/K14-diacetylated H3 (1–19) peptide]				8.5
